Molecular target: LgBiT-PP1α, P62136
Test: split-luciferase kinetic trace, competition with untagged SDS22
Settings: chain shown with the change; 10 μM competitor added at t = 22 min; value read at the last time point (about 45 min); buffer control est. 160; parent: est. 83; read off a plot

Sequence of LgBiT-PP1α, P62136 (P62136 whole entry): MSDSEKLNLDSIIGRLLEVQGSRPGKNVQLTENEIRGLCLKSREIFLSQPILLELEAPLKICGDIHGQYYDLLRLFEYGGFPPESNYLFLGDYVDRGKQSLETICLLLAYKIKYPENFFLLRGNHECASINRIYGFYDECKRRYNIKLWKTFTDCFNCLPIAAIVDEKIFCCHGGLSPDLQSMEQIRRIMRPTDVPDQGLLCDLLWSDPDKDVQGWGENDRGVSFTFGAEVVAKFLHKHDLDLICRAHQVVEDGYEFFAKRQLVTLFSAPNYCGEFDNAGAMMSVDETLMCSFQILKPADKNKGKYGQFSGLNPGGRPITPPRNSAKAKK

B1: SDS22 (tag-free, purified), Q15435 E192A (protein)
chain: MAAERGAGQQQSQEMMEVDRRVESEESGDEEGKKHSSGIVADLSEQSLKDGEERGEEDPEEEHELPVDMETINLDRDAEDVDLNHYRIGKIEGFEVLKKVKTLCLRQNLIKCIENLEELQSLRELDLYDNQIKKIENLEALTELEILDISFNLLRNIEGVDKLTRLKKLFLVNNKISKIENLSNLHQLQMLALGSNRIRAIENIDTLTNLESLFLGKNKITKLQNLDALTNLTVLSMQSNRLTKIEGLQNLVNLRELYLSHNGIEVIEGLENNNKLTMLDIASNRIKKIENISHLTELQEFWMNDNLLESWSDLDELKGARSLETVYLERNPLQKDPQYRRKVMLALPSVRQIDATFVRF
A response (% of value at 22min) of 150 was found for B1 in this work.

— paper PMC11199634
